This assay concerns the target human TSH receptor stably expressed on Chinese Hamster Ovary (CHO) cells (CHO-hTSHR clone JP09 and clone JP26) (human) (UniProt P16473). The assay can be described thus: cell-based or functional assay.

For one substance, Vmax (cyclic AMP production), fold increase compared to wild type TSH, in vitro activity, fold over that of the α4K/TSH-β wild type heterodimer and potency (cyclic AMP production), fold increase compared to wild type TSH results are on record in US20040265972A1.

On to “hTSH α4K/TSH-β-CTEP (heterodimer of mutant α4K subunit and human TSH-β subunit fused to the CTEP of hCG) (from UniProt P0DN86 134-165) (ligand)”, for which the Vmax (cyclic AMP production), fold increase compared to wild type TSH was determined as 1.5 fold; the in vitro activity, fold over that of the α4K/TSH-β wild type heterodimer is 3 to 4 fold; the potency (cyclic AMP production), fold increase compared to wild type TSH stood at 200 fold.
